Experimental data: patent US12329823B2 (The Scripps Research Institute, priority 2021, dated 2025)
Like-named read-outs stand apart in the source and are kept apart here.

Legend:
in vivo [1] = details: dog
[2] = Pharmacokinetics in CD-1 mouse, I.V. or S.C. 1 mg/kg, plasma concentration by LC-MS; details: for AUC(0-inf): AUCINF; for MRT last: MRTLAST; for half-life: T1/2, Table 14;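 for all read-outs here: peptide levels in plasma quantified by LC-MS across multiple sampling times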
Procedure: The peptide plasma concentration at various time points was determined using LC-MS.

dog GIPR = molecular target: T1, dog GIPR (Canis lupus familiaris, UniProt A0A8I3MPG1); assay: In vitro potency, dog GIPR activation (receptor-mediated cAMP synthesis); format: cell-based; details: Table 12; read-out: In Vitro Potency GIPR EC50, Dog
T1 sequence (A0A8I3MPG1 24-449): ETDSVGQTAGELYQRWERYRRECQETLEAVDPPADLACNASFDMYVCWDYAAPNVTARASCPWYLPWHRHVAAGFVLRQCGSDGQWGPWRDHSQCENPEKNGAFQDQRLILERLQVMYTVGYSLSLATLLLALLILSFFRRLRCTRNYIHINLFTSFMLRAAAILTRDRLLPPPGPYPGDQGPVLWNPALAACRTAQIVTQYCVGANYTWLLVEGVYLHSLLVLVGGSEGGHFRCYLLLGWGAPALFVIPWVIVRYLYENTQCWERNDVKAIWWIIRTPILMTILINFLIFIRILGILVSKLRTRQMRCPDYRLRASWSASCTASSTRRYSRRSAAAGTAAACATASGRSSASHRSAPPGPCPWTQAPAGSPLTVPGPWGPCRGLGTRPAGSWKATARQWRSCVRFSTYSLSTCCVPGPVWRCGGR
Procedure: (§1) GLP-1R-CRE or HEK293-GIPR-CRE cells were seeded in 384-well plates at a density of 5000 cells per well and cultured for 18 h in DMEM with 10% FBS at 37° C. and 5% CO2. Cells were treated with peptides in a dose dependent manner for 24 h, and receptor activation was reported by luminescence intensities, using One-Glo (Promega, WI) luciferase reagent following manufacturer's instruction. The EC50 of each peptide was determined using GraphPad Prism 6 software (GraphPad, San Diego, CA). Results are depicted in FIGS. 6A-6B, FIGS. 7A-7B, FIGS. 8A-8B, FIGS. 9A-9B, and Tables 7-12. Measurements of peptide conjugate potency were expressed as half maximal effective concentration (EC50) values.

cynomolgous monkey GLP1R = cynomolgous monkey GLP1R (Macaca fascicularis, UniProt F8V479); assay: In vitro potency, cynomolgous monkey GLP1R activation (receptor-mediated cAMP synthesis); format: cell-based; details: Table 12; read-out: In Vitro Potency GLP1R EC50, Cyno
Procedure: as §1

human GIPR = molecular target: T2, human GIPR (Homo sapiens, UniProt P48546); assay: In vitro receptor activation reporter assay (CRE-Luc, HEK293-GIPR-CRE cells; receptor-mediated cAMP synthesis); format: cell-based
T2 construct: expressed in transfected cells; host or cells: HEK293 (CRE-HEK293, HEK293-GIPR-CRE)
T2 sequence (P48546 22-466): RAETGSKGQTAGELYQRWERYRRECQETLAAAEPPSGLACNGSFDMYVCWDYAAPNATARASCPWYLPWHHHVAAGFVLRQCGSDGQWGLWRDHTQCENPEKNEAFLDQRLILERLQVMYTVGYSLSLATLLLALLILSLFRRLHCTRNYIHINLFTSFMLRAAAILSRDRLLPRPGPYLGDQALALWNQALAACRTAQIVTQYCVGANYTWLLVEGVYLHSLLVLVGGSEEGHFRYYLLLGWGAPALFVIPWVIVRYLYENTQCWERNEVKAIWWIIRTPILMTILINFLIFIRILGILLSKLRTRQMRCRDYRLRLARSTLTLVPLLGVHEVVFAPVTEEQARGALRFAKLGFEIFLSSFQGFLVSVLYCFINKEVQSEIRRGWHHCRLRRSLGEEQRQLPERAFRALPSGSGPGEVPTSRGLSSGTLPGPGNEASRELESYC

in vivo [3] = details: cynomolgus monkey
[4] = mouse, in vivo, iv, 1 mg/kg, Table 14, IV 1 mg/kg
[5] = mouse, in vivo, sc, 1 mg/kg, Table 14, SC 1 mg/kg

Chain of cynomolgous monkey GLP1R (F8V479 24-463): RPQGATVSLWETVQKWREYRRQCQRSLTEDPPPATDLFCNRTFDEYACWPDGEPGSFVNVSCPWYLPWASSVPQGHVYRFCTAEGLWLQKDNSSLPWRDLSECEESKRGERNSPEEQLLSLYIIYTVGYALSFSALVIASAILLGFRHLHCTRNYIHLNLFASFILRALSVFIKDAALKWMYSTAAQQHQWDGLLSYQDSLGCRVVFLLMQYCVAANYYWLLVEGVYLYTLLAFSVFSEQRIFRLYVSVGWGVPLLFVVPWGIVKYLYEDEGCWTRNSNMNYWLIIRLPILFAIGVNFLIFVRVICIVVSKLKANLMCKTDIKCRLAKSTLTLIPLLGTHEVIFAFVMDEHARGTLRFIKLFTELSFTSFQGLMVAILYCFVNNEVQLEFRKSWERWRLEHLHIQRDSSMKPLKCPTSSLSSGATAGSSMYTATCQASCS

**Q.** Which AUC(0-t) (in vivo [1]; iv) does the source give for CC[C@H](C)[C@H](NC(=O)[C@H](CC(C)C)NC(=O)[C@H](Cc1c[nH]c2ccccc12)NC(=O)[C@@H]1CSCC(=O)NCCN(C(=O)CCC(=O)NCCOCCOCCC(=O)NCCOCCOCCC(=O)NCCCC[C@H](NC(=O)CCCCCCCCCCCCCCCCCCC(=O)O)C(=O)O)CCNC(=O)CSC[C@H](NC(=O)[C@H](CCCCN)NC(=O)[C@H](CC(=O)O)NC(=O)[C@H](CC(C)C)NC(=O)[C@H](Cc2ccc(O)cc2)NC(=O)[C@@H](NC(=O)[C@H](CO)NC(=O)[C@H](Cc2ccc(O)cc2)NC(=O)[C@H](CC(=O)O)NC(=O)[C@H](CO)NC(=O)[C@@H](NC(=O)[C@H](Cc2ccccc2)NC(=O)[C@@H](NC(=O)CNC(=O)[C@H](CCC(=O)O)NC(=O)C(C)(C)NC(=O)[C@@H](N)Cc2ccc(O)cc2)[C@@H](C)O)[C@@H](C)O)[C@@H](C)CC)C(=O)N[C@@H](C)C(=O)N[C@@H](C)C(=O)NC(C)(C)C(=O)N[C@@H](CCC(=O)O)C(=O)N[C@@H](Cc2ccccc2)C(=O)N[C@@H](C(C)C)C(=O)N1)C(=O)N[C@@H](C)C(=O)NCC(=O)NCC(=O)N1CCC[C@H]1C(=O)N[C@@H](CO)C(=O)N[C@@H](CO)C(=O)NCC(=O)N[C@@H](C)C(=O)N1CCC[C@H]1C(=O)N1CCC[C@H]1C(=O)N1CCC[C@H]1C(=O)N[C@@H](CO)C(N)=O [mCMV268] here?
**A.** 59.2 µg·h/mL

**Q.** What about the Cmax (in vivo [1]; iv) of the same compound?
**A.** 8500 ng/mL

**Q.** And the T last (in vivo [1]; iv)?
**A.** 168 h

**Q.** What about the Tmax (in vivo [1]; iv) of the same compound?
**A.** 0.693 h

**Q.** What about the Vd (in vivo [1]; iv) of the same compound?
**A.** 0.0957 L/kg

**Q.** And the clearance (in vivo [1]; iv)?
**A.** 1.09 mL/h/kg

**Q.** And the half-life (in vivo [1]; iv)?
**A.** 63.9 h

**Q.** And the AUC(0-t) (in vivo [1]; po)?
**A.** 1.7 µg·h/mL

**Q.** And the Cl (in vivo [1]; po)?
**A.** 1300 mL/h/kg

**Q.** And the Cmax (in vivo [1]; po)?
**A.** 31.4 ng/mL

**Q.** What about the T last (in vivo [1]; po) of the same compound?
**A.** 144 h

**Q.** And the Tmax (in vivo [1]; po)?
**A.** 1 h

**Q.** What about the bioavailability (in vivo [1]; po) of the same compound?
**A.** 0.27%, 0.27%,

**Q.** What about the half-life (in vivo [1]; po) of the same compound?
**A.** 77.8 h

**Q.** What about the bioavailability ([2]; CD-1, mouse, plasma, sc, 1 mg/kg) of the same compound?
**A.** 64%

**Q.** And the Cl ([2]; Table 14, SC 1 mg/kg)?
**A.** 4.8 mL/h/kg

**Q.** What about the Vd ([2]; Table 14, SC 1 mg/kg) of the same compound?
**A.** 0.087 L/kg

**Q.** What about the clearance ([2]; mouse, in vivo, iv, 1 mg/kg) of the same compound?
**A.** 3 mL/h/kg

**Q.** What about the AUC(0-t) ([2]; mouse, in vivo, iv, 1 mg/kg, AUC0-24, Table 14, IV 1 mg/kg) of the same compound?
**A.** 204 µg·h/mL

**Q.** What about the AUC(0-inf) [2, 4] of the same compound?
**A.** 327 µg·h/mL

**Q.** What about the AUC(0-t) ([2]; mouse, in vivo, iv, 1 mg/kg, AUCLAST, Table 14, IV 1 mg/kg) of the same compound?
**A.** 315 µg·h/mL

**Q.** What about the Cmax [2, 4] of the same compound?
**A.** 34000 ng/mL

**Q.** And the MRT last [2, 4]?
**A.** 19.5 h

**Q.** What about the half-life ([2]; mouse, in vivo, iv, 1 mg/kg, IV 1 mg/kg) of the same compound?
**A.** 14.8 h

**Q.** What about the Tmax [2, 4] of the same compound?
**A.** 0.5 h

**Q.** And the Vd ([2]; mouse, in vivo, iv, 1 mg/kg, Vd, Table 14, IV 1 mg/kg)?
**A.** 0.067 L/kg

**Q.** And the AUC(0-t) ([2]; mouse, in vivo, sc, 1 mg/kg, AUC0-24, Table 14, SC 1 mg/kg)?
**A.** 92.1 µg·h/mL

**Q.** And the AUC(0-inf) [2, 5]?
**A.** 208 µg·h/mL

**Q.** What about the AUC(0-t) ([2]; mouse, in vivo, sc, 1 mg/kg, AUCLAST, Table 14, SC 1 mg/kg) of the same compound?
**A.** 200 µg·h/mL

**Q.** And the Cmax [2, 5]?
**A.** 4780 ng/mL

**Q.** What about the MRT last [2, 5] of the same compound?
**A.** 27.8 h

**Q.** What about the half-life ([2]; mouse, in vivo, sc, 1 mg/kg, SC 1 mg/kg) of the same compound?
**A.** 12.8 h

**Q.** What about the Tmax [2, 5] of the same compound?
**A.** 24 h

**Q.** And the EC50 (dog GIPR)?
**A.** 0.42 nM

**Q.** What about the EC50 (cynomolgous monkey GLP1R) of the same compound?
**A.** 0.22 nM

**Q.** And the EC50 (human GIPR; In Vitro Potency GIPR EC50, 10% FBS, Table 11, human, 10% FBS)?
**A.** 0.09 ± 0.02 nM

**Q.** What about the EC50 (human GIPR; Table 11, human, No Serum, read-out: In Vitro Potency GIPR EC50, No Serum) of the same compound?
**A.** 0.01 ± 0.01 nM

**Q.** And the EC50 (human GIPR; unnumbered table, average of runs, read-out: EC50 GIPR average)?
**A.** 0.04 nM

**Q.** What about the EC50 (human GIPR; unnumbered table, run 02/19, read-out: EC50 GIPR 02/19) of the same compound?
**A.** 0.05 nM

**Q.** And the EC50 (human GIPR; unnumbered table, run 03/25, read-out: EC50 GIPR 03/25)?
**A.** 0.04 nM

**Q.** And the EC50 (human GIPR; unnumbered table, run 03/26, read-out: EC50 GIPR 03/26)?
**A.** 0.03 nM

**Q.** And the T last (in vivo [3]; iv)?
**A.** 504 h

**Q.** And the Vd (in vivo [3]; iv)?
**A.** 0.0612 L/kg

**Q.** What about the clearance (in vivo [3]; iv) of the same compound?
**A.** 0.84 mL/h/kg

**Q.** What about the half-life (in vivo [3]; iv) of the same compound?
**A.** 58.8 h

**Q.** And the AUC(0-t) (in vivo [3]; sc)?
**A.** 438 µg·h/mL

**Q.** And the Cmax (in vivo [3]; sc)?
**A.** 3930 ng/mL

**Q.** And the T last (in vivo [3]; sc)?
**A.** 504 h

**Q.** And the Tmax (in vivo [3]; sc)?
**A.** 14.7 h

**Q.** And the bioavailability (in vivo [3]; sc)?
**A.** 73.7%

**Q.** What about the half-life (in vivo [3]; sc) of the same compound?
**A.** 60.5 h
